In patent US9487561B2, “Biologically active complex and its preparation” (HAMLET PHARMA AB, priority 2010, dated 2016):

What was measured:
[1] = tested on: eIF2α, ATF6, XBP1, CHOP in A549 tumor cells; assay: ER stress response (Western blot, XBP1 splicing PCR, RT-PCR); assay type: cell-based, human; conditions: for effect of ion channel inhibitor on HAMLET-induced eIF2α phosphorylation (ER stress): lung carcinoma cells, 30 minutes pretreatment, HAMLET 21 and 35 μM, 1 hour; for XBP1 splicing: PCR
Experimental: RNA was prepared with the RNeasy Mini Kit (QIAGEN, Hilden, Germany) and treated with DNAse I (QIAGEN). cDNA was synthesized using the Superscript III first strand RT-PCR system (Invitrogen). PCR of spliced and un-spliced XBP1 was as described (Yoshida et al., 2001, Cell 107: 881-891). Real-time PCR was performed on a Rotorgene 2000 instrument (Corbett Life Science, Sydney, Australia) using TaqMan Gene Expression Assays (Applied BioSystems) CHOP/DDIT3 (Hs01090850), IL6 (Hs00985639), IL8 (Hs00174103) and TNFα (Hs00174128). GAPDH (Hs99999905_m1) was used for normalization.
Equal volumes of lysates were separated by SDS-PAGE on 4-12% Bis-Tris gels (Invitrogen) and blotted onto PVDF membranes. For other Western blots, 200,000 cells were allowed to adhere overnight in a 6-well plate. After HAMLET treatment the cells were washed with PBS and lysed in M-PER lysis buffer (Pierce) containing Complete protease inhibitor cocktail and PhosSTOP phosphatase inhibitor cocktail (both from Roche). The detached cells were collected by centrifugation. The lysates were cleared by centrifugation and protein concentrations were measured using the DC Protein Assay (Bio-Rad Laboratories, Hercules, Calif.). Equal amounts of protein were separated by SDS-PAGE on 4-12% Bis-Tris gels (Invitrogen) and blotted onto PVDF membranes (GE Healthcare). Membranes were saturated with BSA (GAPDH) or nonfat dry milk (phospho-p38, p38, phospho-ERK1/2, ERK1/2) and incubated with anti-p38, anti-phospho-p38, anti-ERK1/2, anti-phospho-(Thr202/Tyr204)-p44/42 (all 1:500-1000, Cell Signaling Technology), anti-ATF6 (1:1000, IMG-273, Imgenex), anti-phospho-eIF2α (Ser51), (1:500, Cell Signaling Technology) or anti-GAPDH (1:3000-5000, Novus Biologicals) antibodies followed by horseradish peroxidase-conjugated anti-rabbit (1:1000, DakoCytomation, Glostrup, Denmark) or anti-mouse (1:40000-50000, Novus Biologicals) antibodies for staining. Bound antibodies were detected with ECL Plus Western Blotting Reagent (GE Healthcare, Little Chalfont, UK) and GelDoc equipment (Bio-Rad Laboratories, Hercules, Calif.). If required, membranes were stripped with Restore Western Blot Stripping Buffer (Pierce, Rockford, Ill.), blocked and reprobed with new antibodies. MAP kinase phosphorylation was analyzed on a Human Phospho-MAPK array (Proteome Profiler Array, R&D Systems) as per the manufacturer's instruction. Band and spot intensities were quantified using ImageJ (Abramoff et al., July 2004, Biophotonics International). Cytokine quantification (IL6, IL8, TNFα) was performed on an […] 1000 immunoassay system (Siemens Diagnostics).
Disturbances in ER Ca^2+ regulation can impair protein folding in the ER by inactivation of Ca^2+ dependent chaperones, such as GRP78 and calreticulin. An increase in unfolded proteins may activate a conserved series of signal-transduction events. Spanning the ER membrane, three ER stress sensors PERK, ATF6 and IRE1 are activated by an overload of unfolded proteins. Upon PERK activation, eIF2α is phosphorylated, shutting down protein translation to avoid unfolded protein overload. To examine if HAMLET disturbs the ER and triggers an unfolded protein response, we analyzed the transcription of ER stress-induced genes.

[2] = tested on: lung carcinoma cells (A549); assay: intracellular Ca^2+, Fluo-4, real time confocal microscopy; assay type: cell-based, human; conditions: for effect of channel blocker on first, EGTA insensitive Ca^2+ peak in response to HAMLET: 30 minutes pretreatment
Experimental: To examine if HAMLET modulates ion channel activity in tumor cells, we first quantified changes in intracellular Ca^2+ and K^+. Lung carcinoma cells were first preloaded with the Fluo-4 Ca^2+ fluorophore Fluo-, exposed to HAMLET (35 μM) and examined by real time confocal microscopy for changes in fluorescence intensity (FIG. 1A). The Ca^2+ ionophore A23187, which acts as a Ca^2+ shuttle across cell membranes, was used as a positive control (Abbott et al., 1979, Antimicrobial Agents and Chemotherapy 16, 808-812).
To distinguish Ca^2+ mobilization from intracellular stores from the influx of extracellular Ca^2+, EGTA was then added to the cell medium. […] K^+ fluxes across tumor cell membranes were subsequently quantified under the same experimental conditions, using the fluorophore FLUXOR™, which fluoresces after thallium has entered cells through K^+ channels.
To further characterize ion channel activation by HAMLET, carcinoma cells were pretreated with defined channel blockers. Amiloride is a sodium channel inhibitor with effects on mechanosensitive channels, barium chloride (BaCl2) is a general K^+ channel inhibitor, gadolinium chloride (GdCl3) inhibits mechanosensitive channels, Ruthenium red is a general Ca^2+ inhibitor and tetrandrine inhibits large conductance, Ca^2+ activated K^+ channels. The carcinoma cells were preincubated with Fluo-4 as described above, pretreated with each of the channel inhibitors for 30 minutes, exposed to HAMLET (35 μM) and examined by real time confocal imaging. Furthermore, cells treated with EGTA were compared to cells with intact extracellular Ca^2+ levels, to distinguish the early peak from the subsequent influx of Ca^2+ (FIG. 1B, Table in FIG. 8).

## [Ba+2].[Cl-].[Cl-] [BaCl2, barium chloride]
[1]
  effect of ion channel inhibitor on HAMLET-induced eIF2α phosphorylation (ER stress): reduced eIF2α phosphorylation
[2]; HAMLET 35 μM
  effect of channel blocker on first, EGTA insensitive Ca^2+ peak in response to HAMLET: inhibited

## NC(N)=NC(=O)c1nc(Cl)c(N)nc1N [amiloride, 3,5-diamino-6-chloro-N-(diaminomethylene)pyrazine-2-carboxamide]
[1]
  effect of ion channel inhibitor on HAMLET-induced eIF2α phosphorylation (ER stress): reduced eIF2α phosphorylation
[2]; HAMLET 35 μM
  effect of channel blocker on first, EGTA insensitive Ca^2+ peak in response to HAMLET: inhibited

## CCCCCCCC/C=C\CCCCCCCC(=O)[O-].[Na+] [oleate, sodium oleate]
[1]
  XBP1 splicing: caused splicing of XBP1

B1: HAMLET (protein, UniProt P00709 20-142, looked up)
Alpha-lactalbumin: KQFTKCELSQLLKDIDGYGGIALPELICTMFHTSGYDTQAIVENNESTEYGLFQISNKLWCKSSQVPQSRNICDISCDKFLDDDITDDIMCAKKILDIKGIDYWLAHKALCTEKLEQWLCEKL
modifications: oleic acid complex
[1]; 3 hours
  increase of CHOP mRNA: 30 fold
[1]; A549 tumor cells
  eIF2α phosphorylation: time- (30 minutes) and dose-dependent
[1]
  XBP1 splicing: detected
[1]; three hours of HAMLET treatment
  ATF6 (Western blotting): increase in cleaved as well as full-length ATF6
[2]
  cells involved in Ca^2+ response: about 50%
[2]; HAMLET 35 μM
  increase in intracellular Ca^2+ levels relative to ionophore: 31 % of the ionophore
  intracellular Ca^2+ response: rapid, step-wise increase in intracellular Ca^2+
  second Ca^2+ peak: about 100 seconds
  start of increase in intracellular Ca^2+: about 30 seconds
